From patent US20250073277A1, “METHODS FOR OBTAINING CARDIOMYOGENIC PRECURSOR CELLS” (University of Miami, published 2025)

Target: T1, human growth hormone-releasing hormone receptor (GHRHR) (human)
T1 chain: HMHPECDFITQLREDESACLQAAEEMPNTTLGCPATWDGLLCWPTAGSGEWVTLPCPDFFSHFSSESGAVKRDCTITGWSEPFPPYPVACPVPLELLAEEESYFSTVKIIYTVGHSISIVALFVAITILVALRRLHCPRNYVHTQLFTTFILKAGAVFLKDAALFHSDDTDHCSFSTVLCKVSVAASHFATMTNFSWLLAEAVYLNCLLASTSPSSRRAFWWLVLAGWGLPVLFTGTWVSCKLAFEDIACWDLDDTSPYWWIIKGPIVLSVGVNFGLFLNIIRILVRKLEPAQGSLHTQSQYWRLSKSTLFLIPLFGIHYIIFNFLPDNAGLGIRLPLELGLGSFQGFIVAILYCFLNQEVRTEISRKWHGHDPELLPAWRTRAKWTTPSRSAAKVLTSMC
Test: cell-based or functional assay

- NKX2.5 expression in differentiating hiPSCs: 2.5 fold
Binder: YADAIFTNSYRKVLGQLSARKLLQDIMSRQQGESNQERGARARL (ligand) [recombinant growth hormone-releasing hormone (GHRH)]
